Results: the RNAGym collection of RNA variant scans (doi:10.1073/pnas.2313332121)

B1: TPR t1 (parent)
chain: GACCAAUCUGCCCUCAGAGCUCGAGAACAUCUUCGGAUGCAGAGGAGGCAGGCUUCGGUGGCGCGAUAGCGCCAACGUCCUCAACCUCCAAUGCAUCCCACCACAUGAUGAUGCCUGAAGAGCCUUGGUUUUUUG

Variants of: B1
Experiment: polymerase ribozyme fitness, log enrichment relative to wild type (log ratio); higher = more active; in vitro selection for triplet polymerase activity
Summary of the method: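 Only genotypes with ≥10 input reads and ≥1 read per output were kept after Illumina sequencing of input and output libraries. These libraries were PCR-built, transcribed mutants of each subunit of a heterodimeric triplet polymerase ribozyme, each put through one triplicate in vitro selection round with frozen incubation at −7 °C, gel excision of extended constructs, streptavidin-bead capture and RT-PCR. Fitness is a logarithmic ratio of genotype enrichment to wild-type enrichment, from inverse-variance-weighted replicate averages, with the logarithm in base 2.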

In order of rising “polymerase ribozyme fitness (log ratio)” value:
1. C11U C15U G45U C64U U78A C80U C82U A111U  -8.07
2. C12A A24U U32A C99A U116C U130G  -7.85
3. C11G G17A G60A C79G A90U C99A  -7.47
4. C12A C53G G69A C115A U116A  -7.23
5. C11U G42A C73U C104A U109A U125G  -7.2
6. C11G U21A A24U G60U C94G G120A  -7.06
7. C11G G25C G39A C56A U67G C72A C82A A111C  -6.95
8. C11U A41U G69U A74G G117A U125A U130A U131A  -6.86
9. C12A C20A C64A C88U U116C  -6.74
10. C11U C12U C34A G63U U78C C104G G117C  -6.71
11. C12A C22A G52A A84U A91C G120C  -6.58
12. C12A A37U A68G C114G  -6.56
13. C11G C34G C49U U106C C115G C124G  -6.56
14. C11U A50U G61C C76A A111C  -6.51
15. C11U C53A G63C A103C G113U  -6.41
16. C11G A27G G39U G107U A121G U125G  -6.41
17. C11U G45A U78A C86A U106A U125A  -6.24
18. C11U C22U C70U C99U U112A  -6.17
19. C11G G35C G45U G71A U81A U112A U125A  -6.05
20. C11G A41U G47C U59A A66U  -6.01
21. C11U A18U C34U C64G C79U C123A  -5.92
22. C11G C64A  -5.88
23. C11U A29U A91U G107C C114U  -5.83
24. C12A C40U C56A U96A G117A  -5.83
25. C11U C73G C102A A103U  -5.8
26. C12A C20U A26C G48A C49A A121G U133A  -5.75
27. C11U U33A C85G C101U  -5.74
28. C11U G45A G51A C76G A91C C114G  -5.71
29. C11U U30G G120C  -5.71
30. C11G C49A U81G G93U C101G U109A  -5.65
31. C11U G52U A83U G110C C123U  -5.57
32. C11U U32A A46C G48A C72G U112G  -5.51
33. C11G C76A U112A G117C G128C U134G  -5.47
34. C12A A16U G44C C94U G117C U129G  -5.45
35. C11U C15A G45U C72A U129A  -5.41
36. C11G C22G G36A C70U A83C  -5.41
37. C11A G52A G110U G135U  -5.37
38. C12A C13G G35A  -5.31
39. C11G C22A A26C C102A  -5.19
40. C11U U33G  -5.16
41. C11G U21G C53A U55C A68G  -5
42. C11G C31U U55C A90G  -4.94
43. C12A A24G A41U G71C C88U A90G C123G  -4.92
44. C12A C20A G61A C88U U116C  -4.6
45. C11U G63U U78C C101A  -4.53
46. C11U G17A C82A  -4.52
47. C11U A43U C70U C98U G122U  -4.47
48. C11U G17U  -4.34
49. C11U G19U U54A G71A A121C G135U  -4.33
50. C12A A41G G61U G117C G135C  -4.3
51. C11G G39U C49G C64U G117C  -4.26
52. C11A G69A  -4.25
53. C11U U14A A84G  -4.24
54. C11U C20A G57A C62U U87A  -4.19
55. C12A A41U G77C A83G C85A U125A  -4.14
56. C11A G71A G77A C82G  -3.86
57. C11G A27U C49A G61C A75U A84G  -3.81
58. C11U A16U G39C G42A C56U  -3.73
59. C11G C22G G36A A83C  -3.71
60. C11U G57A G63A C101G  -3.69
61. C11G A24G A37C G42A U92C A118U  -3.62
62. C11A G117U  -3.48
63. C11G G17A  -3.46
64. C12A C13A U59G G127A  -3.41
65. C11G A66U U106G  -3.36
66. C11U C70U C102U  -3.34
67. C11G C98A  -3.33
68. C11U C114U U132A  -3.3
69. C11A G117A  -3.3
70. C11U G17A U106A  -3.29
71. C11G C73G C101U U112C G117C  -3.04
72. C11U G39U C86G  -2.92
73. C11U A37C G52C C76U  -2.87
74. C11U A100C G110A  -2.68
75. C11G C13U A84U A91U G93C  -2.67
76. C12A C22G  -2.6
77. C12A C56A C70U C102A C104U  -2.58
78. C11A G58C C72U G122A U125A  -2.52
79. C11G G39A C49G C53U G69A G120C  -2.46
80. C11A U81C A90G  -2.45
81. C11A G48C G71A U87G U106G A121U  -2.38
82. C11A U126A U129C  -2.33
83. C11U C13A C89U  -2.3
84. C12A A41G G63A  -2.29
85. C11U G42C C53A  -2.22
86. C11G G63C A105U C123G  -2.11
87. C11U G60A U131G  -2.06
88. C12A A46U C82U  -1.99
89. C12A A29U  -1.98
90. C11G C13G G45A G117A  -1.92
91. C11G G48C G110A  -1.89
92. C11U C89G  -1.89
93. C11U G17A G57C C89U G120C  -1.86
94. C11U G44A G52A A118C C123G  -1.81
95. C11U C40G C64U  -1.72
96. C11A G52C A74C A111C  -1.71
97. C11U C115G  -1.7
98. C11U C13U  -1.63
99. C12A C49U  -1.61
100. C11A G57U  -1.56
101. C11G A27G  -1.52
102. C11U G42U G48C C88U G135C  -1.51
103. C11U U32C C70U C98U C124G  -1.48
104. C11G G48U  -1.46
105. C11G C104A  -1.42
106. C11G C15U G45C  -1.34
107. C11U G63U  -1.27
108. C11U G71U G93A C104U  -1.26
109. C11U U21C G63A C82U  -1.23
110. C12A A46C G60A C82G  -1.19
111. C11U G63A  -1.15
112. C11U U106G  -1.1
113. C11U G39A  -1.08
114. C11U A46C  -1.05
115. C11G U38G C79U  -1.02
116. C11G A37C A41C C101A A121C G122U  -1.01
117. C11G C64U C72A C89U  -1.01
118. C11G C12G  -1.01
119. C11G G63C U96A  -0.969
120. C11G G36U C56G C82U  -0.948
121. C11G G63U  -0.927
122. C11U G61A C94G  -0.792
123. C11G G36A C73U  -0.782
124. C11G C13G C56U G93A  -0.689
125. C11G C82U G117A  -0.654
126. C12A C49A G61A C82A  -0.648
127. C11G G77C  -0.624
128. C11G G71C  -0.604
129. C11G A29G C72G C123A  -0.598
130. C11U A46C G120A U133G  -0.579
131. C11U A29U C53U C72A C123A  -0.568
132. C11G C73U U96A  -0.543
133. C11G G71A  -0.503
134. C11U C13A U78A  -0.472
135. C11G G48A  -0.377
136. C11U C64U  -0.331
137. C11G C15A  -0.327
138. C11G G113A A119U G120A  -0.282
139. C11G G61U U96C  -0.274
140. C11G C62A U106A  -0.272
141. C11U U78C  -0.264
142. C11G C49A C64U  -0.24
143. C11G C79U  -0.0995
144. C11A G69U  -0.0927
145. C11U G77U A111G U112C G122A  -0.084
146. C11G U32C  -0.0143
147. C11A G120U  0.0217
148. C11G C53U C82U  0.05
149. C11U G61A  0.135
150. C11U C88U C104A A121G  0.139
151. C11G A84U G122A  0.157
152. C11U C72A  0.246
153. C11G A119G  0.484
154. C11G A111G G120C G127U  0.661
155. C12A C56U A95G C115A C124A  0.771
156. C11G C64U A74U C123U  0.798
157. C11U C73G C124U  0.969
158. C11G G93U C123U  0.981
159. C11G C49A G61A  1.07
160. C11U G61A U112C  1.14
161. C11G U87G C123G  1.19
162. C11G C124G  1.42
163. C11G U112A  1.42
164. C11G G60A G120A G135A  1.87
165. C11A G69U G120A U132A  2
166. C12A A74G C123A U131A  2.13
167. C11G G120C G135C  2.47
